Test results: US20190064177A1, “INCORPORATING COMPETITIVE BINDING INFORMATION INTO MOLECULAR ARRAY ANALYSIS TO GENERATE FUNCTION NETWORKS OF INTERACTIONS” (ARIZONA BOARD OF REGENTS ON BEHALF OF ARIZONA STATE …, priority 2017, published 2019)

molecular target: Diaphorase; experiment: peptide array, 1 uM labeled diaphorase, no FAD

fluorescence | Binder
1460 | EAVQKLLFSGSG
1950 | RSHPKHNVGSG
607 | DLDKAFGGSG
2080 | ELFGALFKGGSG
759 | VERASYNLDGSG
1470 | VVQALFDGSG
2610 | YVWGLELSGGSG
5410 | RPLQVQRGGS
2260 | AFYGLELGGSG
1030 | EGYANKLLALFSGSG
2090 | KHSFQKELGGSG
2200 | WLDLGVFPYQHLGSG
1230 | YSALFGLQEDGSG
1570 | FQFGKVVSDGSG
1340 | SVLEGYQAVFGGSG

Second part, the binder before the results:

Binder | fluorescence
VFGVLSQVARDGSG | 4250
LAKQNRVEDGSG | 770
LKQLFLEGGSG | 1560
RFGQNLPLGGSG | 5800
YRFAQYKGQKDGSG | 4470
RYNLYKPSDGSG | 3570
VKDGANKHYWRVSGSG | 2220
RWYKNGGSG | 10200
QLLQLLFGGSG | 3230
NVSDLSQFYLSGSG | 2140
VLSLNQVYSEGSG | 1670
LLGFLGGSG | 2320
AQVAVDGFYVDGSG | 2010
LDRLGEYQFSGSG | 709
FGKLYQLYNDGSG | 1910

molecular target: Diaphorase; experiment: peptide array, 10 uM labeled diaphorase, no FAD

fluorescence | Binder
5390 | EAVQKLLFSGSG
17000 | RSHPKHNVGSG
1850 | DLDKAFGGSG
12900 | ELFGALFKGGSG
2900 | VERASYNLDGSG
9480 | VVQALFDGSG
17300 | YVWGLELSGGSG
53200 | RPLQVQRGGS
16500 | AFYGLELGGSG
6650 | EGYANKLLALFSGSG
2390 | KHSFQKELGGSG
25700 | WLDLGVFPYQHLGSG
8530 | YSALFGLQEDGSG
12700 | FQFGKVVSDGSG
6070 | SVLEGYQAVFGGSG

Continued, binder first:

Binder | fluorescence
VFGVLSQVARDGSG | 26200
LAKQNRVEDGSG | 2950
LKQLFLEGGSG | 8700
RFGQNLPLGGSG | 63500
YRFAQYKGQKDGSG | 56900
RYNLYKPSDGSG | 50300
VKDGANKHYWRVSGSG | 20400
RWYKNGGSG | 64800
QLLQLLFGGSG | 19500
NVSDLSQFYLSGSG | 6740
VLSLNQVYSEGSG | 9850
LLGFLGGSG | 26300
AQVAVDGFYVDGSG | 12600
LDRLGEYQFSGSG | 3000
FGKLYQLYNDGSG | 15700

molecular target: Diaphorase; experiment: peptide array, 1 uM labeled diaphorase, with FAD

fluorescence | Binder
2420 | EAVQKLLFSGSG
3880 | RSHPKHNVGSG
2050 | DLDKAFGGSG
3400 | ELFGALFKGGSG
2240 | VERASYNLDGSG
2300 | VVQALFDGSG
4690 | YVWGLELSGGSG
14400 | RPLQVQRGGS
4180 | AFYGLELGGSG
1730 | EGYANKLLALFSGSG
728 | KHSFQKELGGSG
3430 | WLDLGVFPYQHLGSG
2100 | YSALFGLQEDGSG
2470 | FQFGKVVSDGSG
2660 | SVLEGYQAVFGGSG

The next lines start with the binder.

Binder | fluorescence
VFGVLSQVARDGSG | 6640
LAKQNRVEDGSG | 1440
LKQLFLEGGSG | 2470
RFGQNLPLGGSG | 2100
YRFAQYKGQKDGSG | 1600
RYNLYKPSDGSG | 1250
VKDGANKHYWRVSGSG | 12300
RWYKNGGSG | 3660
QLLQLLFGGSG | 6310
NVSDLSQFYLSGSG | 3440
VLSLNQVYSEGSG | 2710
LLGFLGGSG | 4140
AQVAVDGFYVDGSG | 3090
LDRLGEYQFSGSG | 1160
FGKLYQLYNDGSG | 3050

molecular target: Diaphorase; experiment: peptide array, 10 uM labeled diaphorase, with FAD

fluorescence | Binder
17700 | EAVQKLLFSGSG
12200 | RSHPKHNVGSG
2140 | DLDKAFGGSG
25300 | ELFGALFKGGSG
3370 | VERASYNLDGSG
21200 | VVQALFDGSG
36300 | YVWGLELSGGSG
41100 | RPLQVQRGGS
36700 | AFYGLELGGSG
10400 | EGYANKLLALFSGSG
300 | KHSFQKELGGSG
33600 | WLDLGVFPYQHLGSG
16900 | YSALFGLQEDGSG
20200 | FQFGKVVSDGSG
21500 | SVLEGYQAVFGGSG

The remaining lines, values behind:

Binder | fluorescence
VFGVLSQVARDGSG | 51500
LAKQNRVEDGSG | 3700
LKQLFLEGGSG | 23500
RFGQNLPLGGSG | 34700
YRFAQYKGQKDGSG | 19900
RYNLYKPSDGSG | 18200
VKDGANKHYWRVSGSG | 17800
RWYKNGGSG | 46300
QLLQLLFGGSG | 53400
NVSDLSQFYLSGSG | 27800
VLSLNQVYSEGSG | 21800
LLGFLGGSG | 40300
AQVAVDGFYVDGSG | 22700
LDRLGEYQFSGSG | 7140
FGKLYQLYNDGSG | 34200

molecular target: Diaphorase; experiment: peptide array, 1 uM diaphorase, binding without FAD / with FAD

noFAD/FAD | Binder
0.602 | EAVQKLLFSGSG
0.504 | RSHPKHNVGSG
0.296 | DLDKAFGGSG
0.612 | ELFGALFKGGSG
0.339 | VERASYNLDGSG
0.637 | VVQALFDGSG
0.556 | YVWGLELSGGSG
0.375 | RPLQVQRGGS
0.541 | AFYGLELGGSG
0.599 | EGYANKLLALFSGSG
2.87 | KHSFQKELGGSG
0.641 | WLDLGVFPYQHLGSG
0.583 | YSALFGLQEDGSG
0.637 | FQFGKVVSDGSG
0.503 | SVLEGYQAVFGGSG

Further lines, the binder ahead of its results:

Binder | noFAD/FAD
VFGVLSQVARDGSG | 0.64
LAKQNRVEDGSG | 0.537
LKQLFLEGGSG | 0.63
RFGQNLPLGGSG | 2.76
YRFAQYKGQKDGSG | 2.78
RYNLYKPSDGSG | 2.87
VKDGANKHYWRVSGSG | 0.18
RWYKNGGSG | 2.78
QLLQLLFGGSG | 0.511
NVSDLSQFYLSGSG | 0.624
VLSLNQVYSEGSG | 0.619
LLGFLGGSG | 0.559
AQVAVDGFYVDGSG | 0.652
LDRLGEYQFSGSG | 0.609
FGKLYQLYNDGSG | 0.627

molecular target: Diaphorase; experiment: peptide array, 10 uM diaphorase, binding without FAD / with FAD

noFAD/FAD | Binder
0.304 | EAVQKLLFSGSG
1.39 | RSHPKHNVGSG
0.865 | DLDKAFGGSG
0.511 | ELFGALFKGGSG
0.86 | VERASYNLDGSG
0.448 | VVQALFDGSG
0.476 | YVWGLELSGGSG
1.3 | RPLQVQRGGS
0.45 | AFYGLELGGSG
0.639 | EGYANKLLALFSGSG
0.794 | KHSFQKELGGSG
0.765 | WLDLGVFPYQHLGSG
0.506 | YSALFGLQEDGSG
0.631 | FQFGKVVSDGSG
0.282 | SVLEGYQAVFGGSG

The remaining lines, values behind:

Binder | noFAD/FAD
VFGVLSQVARDGSG | 0.509
LAKQNRVEDGSG | 0.797
LKQLFLEGGSG | 0.369
RFGQNLPLGGSG | 1.83
YRFAQYKGQKDGSG | 2.86
RYNLYKPSDGSG | 2.77
VKDGANKHYWRVSGSG | 1.14
RWYKNGGSG | 1.4
QLLQLLFGGSG | 0.366
NVSDLSQFYLSGSG | 0.242
VLSLNQVYSEGSG | 0.452
LLGFLGGSG | 0.652
AQVAVDGFYVDGSG | 0.555
LDRLGEYQFSGSG | 0.419
FGKLYQLYNDGSG | 0.46

molecular target: Diaphorase; experiment: peptide array, 1 uM diaphorase, measured binding without FAD / with FAD

Meas. ratio (noFAD/FAD) | Binder
1.49 | YRGAGKNKGGSG
2.54 | WRLNPLQFGGSG
1.71 | RQRYPKVSGGSG
2.06 | YRWGAKHYGGSG
2.56 | YQRHQNVFAKSGG

Continued, binder first:

Binder | Meas. ratio (noFAD/FAD)
ARWQQYKFGGSG | 2.18
RVLPYHGWKWFSG | 2.45
WRPFWKNLGGSG | 2.18
PQKSNHFHEAQKR | 2.41
YWRFYANWAQLFG | 2.56
PRFNWKPYGGSG | 2.44
YRYGWQKYGGSG | 2.43
